T1: mu opioid receptor (Rattus norvegicus, UniProt P33535)
T1 chain: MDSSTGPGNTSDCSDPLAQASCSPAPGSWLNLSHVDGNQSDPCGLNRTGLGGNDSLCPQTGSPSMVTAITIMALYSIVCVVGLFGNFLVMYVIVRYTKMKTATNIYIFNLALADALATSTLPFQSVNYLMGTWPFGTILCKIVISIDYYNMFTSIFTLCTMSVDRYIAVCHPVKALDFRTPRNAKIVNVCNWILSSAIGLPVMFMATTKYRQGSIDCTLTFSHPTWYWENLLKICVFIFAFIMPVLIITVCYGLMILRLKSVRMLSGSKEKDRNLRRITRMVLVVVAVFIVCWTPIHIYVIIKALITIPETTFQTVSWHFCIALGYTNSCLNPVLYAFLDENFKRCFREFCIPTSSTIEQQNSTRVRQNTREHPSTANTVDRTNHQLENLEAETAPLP

T2: delta opioid receptor (Mus musculus, UniProt P32300)
T2 chain: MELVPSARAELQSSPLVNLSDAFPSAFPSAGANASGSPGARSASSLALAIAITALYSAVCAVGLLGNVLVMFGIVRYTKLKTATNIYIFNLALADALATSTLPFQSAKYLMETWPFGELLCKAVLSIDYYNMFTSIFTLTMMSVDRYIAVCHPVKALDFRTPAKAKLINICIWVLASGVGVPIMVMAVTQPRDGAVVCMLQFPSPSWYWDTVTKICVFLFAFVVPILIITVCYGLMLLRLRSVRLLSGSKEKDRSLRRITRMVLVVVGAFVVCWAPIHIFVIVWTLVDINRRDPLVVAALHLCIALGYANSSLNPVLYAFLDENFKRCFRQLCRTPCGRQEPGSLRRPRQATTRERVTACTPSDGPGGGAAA

B1: cyclo[Ala2(-CH=CH-)Ala5]Dyn A-(1-11)NH2 trans (2) (peptide)
chain: YAGFARRIRPK
modifications: trans -CH=CH- bridge between Ala2 and Ala5 side chains, C-terminal amide
B2: cyclo[Ala2(-CH=CH-)Ala5]Dyn A-(1-11)NH2 cis (1) (peptide)
chain: YAGFARRIRPK
modifications: cis -CH=CH- bridge between Ala2 and Ala5 side chains, C-terminal amide
B3: cyclo[D-Ala2(-CH=CH-)Ala5]Dyn A-(1-11)NH2 cis (3) (peptide)
chain: YAGFARRIRPK
modifications: D-Ala2, cis -CH=CH- bridge between residues 2 and 5 side chains, C-terminal amide
B4: cyclo[Ala5(-CH=CH-)Ala8]Dyn A-(1-11)NH2 cis (5) (peptide)
chain: YGGFARRARPK
modifications: cis -CH=CH- bridge between Ala5 and Ala8 side chains, C-terminal amide
B5: cyclo[Ala5(-CH=CH-)Ala8]Dyn A-(1-11)NH2 trans (6) (peptide)
chain: YGGFARRARPK
modifications: trans -CH=CH- bridge between Ala5 and Ala8 side chains, C-terminal amide

Biological target: T1, mu opioid receptor
Assay: radioligand competition

In order of falling Ki:
1. B2  763 nM
2. B1  180 nM
3. B4  93 nM
4. B5  36 nM
5. B3  2.33 nM

Biological target: T2, delta opioid receptor
Assay: radioligand competition

In order of falling Ki:
1. B2  7670 nM
2. B1  1130 nM
3. B3  9.3 nM
